Results taken from patent publication EP4552657A1, “RADIOPHARMACEUTICAL COMPLEXES AND COMBINATIONS” (priority 2023, dated 2025).

Key:
human c-Met = target: T1, human c-Met (Homo sapiens, UniProt P08581); assay: Flow cytometry, cell surface binding on MKN-45 and HT-55 cells; settings: compared to unconjugated Telisotuzumab
T1 construct: MKN-45 and HT-55 cells expressing human c-Met; endogenous in cells; host or cells: MKN-45, HT-55
Experimental: The in vitro binding properties of antibody-chelator conjugates were assessed in various relevant cell lines and compared to their corresponding unconjugated antibody. Briefly, samples were diluted in buffer (PBS/3% FBS) and added to relevant cell lines. After completion of the binding step (60 min at 4°C), the cells were washed and incubated with secondary antibody conjugated with phycoerythrin to detect antibodies containing a human IgG Fc region. After 60 min at 4°C, the cells were washed, and fluorescence on the cells was determined by flow cytometry using Guava EasyCyte 8HT (Luminex).
Cell surface binding of Telisotuzumab-macropa was compared to unconjugated Telisotuzumab and investigated by flow cytometry using MKN-45 and HT-55 cells expressing human c-Met (Figure 37).

GUCY2C = GUCY2C (Homo sapiens, UniProt P25092); assay: Immunoreactive fraction (IRF), binding to GUCY2C-coated beads
Experimental: Shortly after completion of the radiolabeling, the binding was assessed by measuring the fraction of radiolabeled antibody-chelator conjugate bound to relevant antigen coated magnetic beads (Thermo Fisher Scientific). In short, beads were placed in 2 mL Eppendorf tubes in 90 µL buffer (PBS/0.1% Tween 20/1% BSA). The radiolabeled compounds were diluted to 5 Bq/µL in buffer and 50 Bq were added to each bead-containing tube. The binding lasted for 60 min while shaking at 750 rpm at room temperature. After completion of the binding step, magnet (DynaMag-2) was used to separate the beads from […] supernatant. The radio activities in the supernatant and in the beads of each sample were measured using a high purity Germanium detector (Ortec). […] Total binding was defined as [(activity in beads […])/ (total activity)] × 100.
After completion of the radiolabeling, the binding Ac225-macropa-Indusatumab to GUCY2C-coated M270-carboxy Dynabeads was determined by IRF (as describe above).

[1] = test system: CHO cells stably expressing GUCY2C; settings: 20 kBq/µg; 6 days; vs isotype control
Experimental: In vitro cytotoxicity of Ac-225-ACC was determined in cell lines expressing different levels of relevant target receptors. Cells were seeded at an appropriate cell density in relevant cell media. One day after seeding, the radiolabeled compounds at the specific activity of 2-20 kBq/µg and radioactive concentration of 50-100 kBq/ml were titrated in parallel with a radiolabeled isotype control. Cells were incubated for 5-6 days. Cell viability was determined by cell counting using Hoechst and PI staining and analyzed on Operetta CLS High Content Analysis System (Perkin Elmer) or by ATP measurements using CellTiterGlo (Promega).
The cells were seeded at an appropriate cell density in MEM Alpha + 10% FBS + 1x Glutamax + 0.5 mg/ml G418. […] Cells were treated for 6 days and subsequentially cell viability was determined using CellTiterGlo (Promega).

T1 sequence (P08581 25-1390): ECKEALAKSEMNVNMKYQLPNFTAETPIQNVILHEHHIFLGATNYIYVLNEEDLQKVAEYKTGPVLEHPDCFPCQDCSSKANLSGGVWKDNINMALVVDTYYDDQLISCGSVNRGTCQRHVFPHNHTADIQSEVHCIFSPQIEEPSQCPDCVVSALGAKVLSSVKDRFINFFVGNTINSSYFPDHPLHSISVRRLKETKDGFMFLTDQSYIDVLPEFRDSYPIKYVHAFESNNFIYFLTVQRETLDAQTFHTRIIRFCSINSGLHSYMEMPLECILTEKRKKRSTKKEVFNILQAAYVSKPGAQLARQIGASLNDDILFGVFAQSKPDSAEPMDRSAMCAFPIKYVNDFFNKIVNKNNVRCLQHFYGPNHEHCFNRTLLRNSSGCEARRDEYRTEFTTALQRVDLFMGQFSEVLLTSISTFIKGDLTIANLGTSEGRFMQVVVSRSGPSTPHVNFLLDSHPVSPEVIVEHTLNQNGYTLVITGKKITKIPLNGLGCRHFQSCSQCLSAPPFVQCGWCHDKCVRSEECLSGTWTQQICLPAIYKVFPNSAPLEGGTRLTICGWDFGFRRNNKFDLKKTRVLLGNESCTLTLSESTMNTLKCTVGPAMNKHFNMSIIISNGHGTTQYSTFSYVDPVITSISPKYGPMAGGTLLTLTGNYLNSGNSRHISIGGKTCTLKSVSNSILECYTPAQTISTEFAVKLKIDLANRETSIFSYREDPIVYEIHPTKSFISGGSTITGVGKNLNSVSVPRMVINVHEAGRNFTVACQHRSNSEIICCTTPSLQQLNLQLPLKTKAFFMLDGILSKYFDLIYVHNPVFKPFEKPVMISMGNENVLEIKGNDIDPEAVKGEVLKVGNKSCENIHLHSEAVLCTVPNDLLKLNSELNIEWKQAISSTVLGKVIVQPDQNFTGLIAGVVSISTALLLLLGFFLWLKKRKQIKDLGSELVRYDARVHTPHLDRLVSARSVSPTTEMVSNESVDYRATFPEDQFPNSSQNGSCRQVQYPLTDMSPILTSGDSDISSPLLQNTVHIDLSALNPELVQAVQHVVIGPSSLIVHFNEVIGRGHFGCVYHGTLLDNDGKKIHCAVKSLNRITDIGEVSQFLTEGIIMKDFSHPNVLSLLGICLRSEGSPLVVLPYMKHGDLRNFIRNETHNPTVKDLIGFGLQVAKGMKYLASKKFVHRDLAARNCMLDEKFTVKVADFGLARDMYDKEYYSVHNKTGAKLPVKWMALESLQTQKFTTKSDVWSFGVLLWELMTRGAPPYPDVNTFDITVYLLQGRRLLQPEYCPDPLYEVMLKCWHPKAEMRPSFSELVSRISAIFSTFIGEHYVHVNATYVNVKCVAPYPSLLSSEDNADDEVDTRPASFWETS

Row | Substance | EC50 (human c-Met) | amount of GUCY2C-coated beads at which maximal binding was achieved (GUCY2C) [µg] | cytotoxicity [1]
1 | Telisotuzumab-macropa | comparable EC50 in both cell lines as unconjugated Telisotuzumab | – | –
2 | Ac-225-macropa-Indusatumab: Ac-225 macropa complex bound to the anti-GUCY2C monoclonal antibody Indusatumab | – | 7.5 | strong and specific cytotoxicity
